Data set [1] concerns the target T1, E. coli thioredoxin/human IL-11 fusion protein with enterokinase cleavage spacer, P20809.
T1 chain: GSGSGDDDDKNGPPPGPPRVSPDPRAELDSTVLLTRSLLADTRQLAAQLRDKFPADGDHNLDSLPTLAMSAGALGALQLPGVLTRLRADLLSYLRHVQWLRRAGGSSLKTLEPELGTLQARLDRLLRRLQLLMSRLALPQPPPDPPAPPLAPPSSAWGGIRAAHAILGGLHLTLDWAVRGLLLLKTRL

For data set [2], the target named is bovine pancreatic trypsin inhibitor (BPTI, Sigma), P00974.
The target in data set [3] is T2, Gly-(Asp4)-Lys-βNA fluorogenic enterokinase substrate.
T2 chain: GDDDDK

Data set [4] concerns the target T3, soybean trypsin inhibitor (STI, Sigma), P01070.
T3 chain: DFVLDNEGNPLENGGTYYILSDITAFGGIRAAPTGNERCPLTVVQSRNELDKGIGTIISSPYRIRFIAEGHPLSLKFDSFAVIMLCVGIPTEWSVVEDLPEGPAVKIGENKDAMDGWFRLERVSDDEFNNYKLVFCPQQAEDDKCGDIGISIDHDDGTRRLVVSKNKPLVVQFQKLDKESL

B1: CHO-produced recombinant bovine enterokinase catalytic domain (light chain) (protein)
chain: IVGGSDSREGAWPWVVALYFDDQQVCGASLVSRDWLVSAAHCVYGRNMEPSKWKAVLGLHMASNLTSPQIETRLIDQIVINPHYNKRRKNNDIAMMHLEMKVNYTDYIQPICLPEENQVFPPGRICSIAGWGALIYQGSTADVLQEADVPLLSNEKCQQQMPEYNITENMVCAGYEAGGVDSCQGDSGGPLMCQENNRWLLAGVTSFGYQCALPNRPGVYARVPRFTEWIQSFLH
On to B1, for which the values for the EFFICIENCY OF CLEAVAGE (relative molar activities) (relative molar activity) (in data set [1]; in the data set with Trypsinogen; in data set [3]) were 25, 1 and 1, respectively. Also, in data set [1], the “cleavage of fusion protein (SDS-PAGE)” value was “resulted in total and specific cleavage of this fusion protein into its two component domains (thioredoxin and IL-11)”. Further, the “cleaving activity toward the fluorogenic enterokinase substrate Gly-(Asp4)-Lys-βNA” value in data set [2] is “This activity was inhibited by the addition of either soybean trypsin inhibitor (STI,Sigma) or bovine pancreatic trypsin inhibitor (BPTI, Sigma)”; in data set [4] it was “This activity was inhibited by the addition of either soybean trypsin inhibitor (STI,Sigma) or bovine pancreatic trypsin inhibitor (BPTI, Sigma)”.

(Values after patent US6746859.)
